This is an account of results in patent US20260347486 (published 2026).

Residue numbers refer to the chain shown, from its start.

To fix the notation:
T1: IL-18Rβ ECD (human)
T1 chain: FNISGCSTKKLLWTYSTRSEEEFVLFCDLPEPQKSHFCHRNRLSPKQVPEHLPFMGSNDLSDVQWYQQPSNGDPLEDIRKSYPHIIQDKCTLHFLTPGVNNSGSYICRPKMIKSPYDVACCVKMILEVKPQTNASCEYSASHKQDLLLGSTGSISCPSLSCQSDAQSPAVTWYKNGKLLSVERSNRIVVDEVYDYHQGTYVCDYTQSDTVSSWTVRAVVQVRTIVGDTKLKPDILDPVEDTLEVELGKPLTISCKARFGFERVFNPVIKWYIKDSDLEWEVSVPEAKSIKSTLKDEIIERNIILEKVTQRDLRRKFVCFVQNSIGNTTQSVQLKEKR

T2: IL-18Rα ECD (human)
T2 chain: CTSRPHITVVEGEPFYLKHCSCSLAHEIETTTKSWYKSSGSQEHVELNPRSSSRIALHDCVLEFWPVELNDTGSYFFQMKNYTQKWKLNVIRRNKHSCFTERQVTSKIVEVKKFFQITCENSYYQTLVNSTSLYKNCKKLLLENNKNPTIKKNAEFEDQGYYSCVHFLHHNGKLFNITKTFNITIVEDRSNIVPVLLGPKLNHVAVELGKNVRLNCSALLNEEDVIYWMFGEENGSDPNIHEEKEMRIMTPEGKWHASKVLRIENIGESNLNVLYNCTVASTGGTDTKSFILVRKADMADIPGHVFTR

B1: IL18R_VHHα8β17 (antibody, V domains shown)
V domain 1: DVQLQESGGGLVQAGGSLRLSCAASGRTFSNDAMGWFRQAPGKEREFVAAVSWSLGMTYNADSVKGRFTISRDNAKNTVYLQMNSLKPDDTAVYYCAAGPDLSDELYGYDYWGQGTQVTVSS
V domain 2: DVPLQESGGGLVQAGGSLRLSCVASGFALDEIAVGWFRQAPGKEREGLSCISSSDGSTLYADSVKGRFTISSDNAKNTVYLQMNSLKPEDTAVYLCAAVRGSCFGRTTHWGQGTQVTVSS
B2: IL18R_VHHα8β15 (antibody, V domains shown)
V domain 1: B1 V domain 1
V domain 2: DVQLQESGGGLVQPGGSLRLSCAASGRFFTINAMGWYRQTPGKQRELVAAITSDGSTTYQDSVKGRFTISRDNANRTANLYMNSLKSEDTAVYYCNADGRFNDNGYVKNFNIWGQGTQVTVSS
B3: IL18R_VHHα2β17 (antibody, V domains shown)
V domain 1: DVQLQESGGGLVQAGGSLRLSCAASGFTLLDSYDIGWFRQAPGKKREEVSCISSSGGKSTYYADSVKGRFTISRDNANNTVYLQMNSLKPEDTAVYYCAADGAEGFWSCQSGGYDYWGQGTQVTVSS
V domain 2: B1 V domain 2
B4: IL18R_tanVHHβ15α2 (antibody, V domains shown)
V domain 1: B2 V domain 2
V domain 2: B3 V domain 1
B5: IL18R_tanVHHα2β15 (antibody, V domains shown)
V domain 1: B3 V domain 1
V domain 2: B2 V domain 2
B6: ms_IL18R_VHHα8 (antibody, V domains shown)
VH: B1 V domain 1
B7: ms_IL18R_VHHα10 (antibody, V domains shown)
VH: DVQLQESGGGLVQAGGSLRLSCAASGLPFSSYAMGWFRQAPGKDREFVAGITWSGSSIYYRDSVKGRFTISRDNAKNTVWLQMNDLKPEDTAVYYCAAARRRVGLPLADPREYVYWGQGTQVTVSS
B8: ms_IL18R_VHHα5 (antibody, V domains shown)
VH: DVQLQESGGGLVQAGGSLRLSCAASGRTFSNLAMAWFRQAPGKEREFVAAIDWNGDNRLYAASVKGRFTISRDNAKSTMYLQMNSLKPEDTAVYYCAADSTYSTDWYLNPLNRTRYDYWGQGTQVTVSS
B9: ms_IL18R_VHHα7 (antibody, V domains shown)
VH: B8 VH with R27H, S30N, F37C, A49S, A62Y, D105N, N109D, R115T, D117N, Q124P
B10: ms_IL18R_VHHα6 (antibody, V domains shown)
VH: DVPLQESGGGSVQPGGSLRLSCAASKSIFSINAMRWHRQAPGKQRELVATFTSSGRINYADSVKGRFTISTDNAKNTIYLQMNSLNPEDTAVYRCNVGLWEDGLWYDYWGQGTQVTVSS
B11: ms_IL18R_VHHα2 (antibody, V domains shown)
VH: B3 V domain 1
B12: ms_IL18R_VHHα1 (antibody, V domains shown)
VH: DVPLQESGGGLVQTGGSLRLSCAASGFTFNSYAMGWYQQAPGKKYRELVAHIGSGGSTRYIDSVKGRFTISRDNAKNTVYLQMNSLKPEDTAVYYCNVYGATLRSWGQGTQVTVSS
B13: ms_IL18R_VHHβ19 (antibody, V domains shown)
VH: DVQLQESGGGLVQAGGSLRLSCAASGIRFNPFRMAWYRQAPGKQRELVAAIDSGGSTDYADSVRGRFTISRDNAKITVSLQMNSLKPEDTAVYYCNTQIFARDYWGQGSQVTVSS
B14: ms_IL18R_VHHα11 (antibody, V domains shown)
VH: DVPLQESGGGLVQPGQSLRLSCAASGSPIRFSVMGWFQQAPGKGRDLIARITSGGIVYYTDSVKGRFTISKDNAKNTLYLQMNSLNLEDTGVYYCNRLGGALFDWGQGTQVTVSS
B15: ms_IL18R_VHHα9 (antibody, V domains shown)
VH: DVQLQESGGGLVQPGESLRLSCTASRSDFSRYTMGWYRQAPGKWRELVARITSGGIPHYADSVKGRFTISRDNAKNTVTLQMNTLQFEDSAVYYCNTVGVALWAWGQGTLVTVSS
B16: ms_IL18R_VHHα4 (antibody, V domains shown)
VH: DVQLQESGGGLVQAGGSLRLSCAASGFTLGAYAINWFQQAPGKERARAWVLCITSSGGSAYYVDSVKGRFTVSRDNAKNTVYLQMNSLKPEDTAFYYCAAGGACAAAETMNYWGKGTLVTVSS
B17: ms_IL18R_VHHα3 (antibody, V domains shown)
VH: B16 VH with Q38R, V50D, L51A, G58R, V63A, N76H, G102A, E108G
B18: ms_IL18R_VHHβ21 (antibody, V domains shown)
VH: DVQLQESGGGLVQAGGSLRLSCAASGITFSPYVMGWYRQAPGKQRELVADMVNGGSTNYADSVKGRFTIFRDTAANTVTLQMNNLKPDDTAVYYCHIMIFGRASWGQGTQVTVSS
B19: ms_IL18R_VHHβ17 (antibody, V domains shown)
VH: B1 V domain 2
B20: ms_IL18R_VHHβ14 (antibody, V domains shown)
VH: DVPLQESGGGLVQAGGSLRLSCAASDRTVSKGAMGWFRQAPGKEREFVATIGRSSGITYYADSVKGRFTISRDNAKNTWYLQMNSLRPEDTAVYYCAADSSGIIRTTSWAYDYWGQGTQVTVSS
B21: ms_IL18R_VHHβ13 (antibody, V domains shown)
VH: DVQLQESGGGLVQPGGSLRLSCAASGISFRVNVLGWYRQAPGKPRELVASISSGDSTNYADSVKGRFTISRDNAKSTVYLQMNNLKPEDTAVYYCNARIFARDNWGQGTQVTVSS
B22: ms_IL18R_VHHβ15 (antibody, V domains shown)
VH: B2 V domain 2
B23: ms_IL18R_VHHβ16 (antibody, V domains shown)
VH: DVQLQESGGGSVPAGGSLRLSCSASGFTTDDYIIGWFRQAPGKKREGVSCISTTDGSAWYADSVKGRFTISSDNANNTVTLQMNSLLPEDTSVYYCAEVSTGTGVLYCREEFYFGMDSWGKGTPVTVSS
B24: ms_IL18R_VHHβ12 (antibody, V domains shown)
VH: DVPLQESGGGLVQPGGSLRLSCRASGVGFSIYTMGWYRQAPGEQRHLVATVTTGGHINYGDSVQGRFTISRENNGNVVELQMHSLKPEDTAVYFCNAIYFGQDIWGQGTQVTVSS
B25: ms_IL18R_VHHβ22 (antibody, V domains shown)
VH: DVPLQESGGGLVQPGGSLRLSCAAPGFALEYYAIGWFRQAPGKEREGLSCVSSSRSGGSTVYADSVKGRFTISRDNAKNTVYLQIDSLKVEDTAVYYCAGAPAYRSHYCRLQADDYTYWGQGTQVTVSS
B26: ms_IL18R_VHHβ18 (antibody, V domains shown)
VH: DVQLQESGGGLVQAGGSLRLSCAASGRTFSSYAMGWFRQAPGMVREFVAAISWSGGSTYYADSVQGRFTISRDNAKNTVYLQMNSLKPEDTAVYYCAADRSLSGSYFGATIDYWGQGTQVTVSS
B27: ms_IL18R_VHHβ20 (antibody, V domains shown)
VH: DVQLQESGGGLVQAGGSLRLSCAASVSAFRLKVMGWYRQAPGKEREFVAAIDSGDTKSYTNAVKGRFTISGGAATNTVVLQMNSLKPEDTAFYYCNAVLFGRDYWGQGTQVTVSS

One experiment addresses IL-18BP (human). The experiment can be described thus: BLI.
As to B1, the binding result is “no binding”.

Regarding B2, the binding result is on record as “no binding”.

In the case of B3, the binding result is “no binding”.

Turning to B4, the binding result is reported as “no binding”.

For the molecule B5, the binding result is “no binding”.

The target in a further experiment is T1, IL-18Rβ ECD. Nature of the experiment: BLI. (In general: In BLI a coated tip is dipped into the sample, and binding shifts an interference pattern.)
For the molecule B6, the binding result is “no binding”.

Take B7: the binding result is reported as “no binding”.

With B8, the binding result was “no binding”.

Regarding B9, the binding result is on record as “no binding”.

B10: the binding result is listed as “no binding”.

Consider B11, for which the binding result is “no binding”.

For the molecule B12, the binding result was “no binding”.

B13: the binding result is given as “no binding”.

Regarding B14, the binding result is listed as “no binding”.

B15: the binding result was “no binding”.

Consider B16, for which the binding result is listed as “no binding”.

As for B17, the binding result is recorded as “no binding”.

The next experiment addresses T2, IL-18Rα ECD. The experiment can be described thus: BLI.
Take B18: the binding result is “no binding”.

On to B19, for which the binding result is “no binding”.

In the case of B20, the binding result is “no binding”.

In the case of B21, the binding result was “no binding”.

Consider B22, for which the binding result is “no binding”.

In the case of B23, the binding result is listed as “no binding”.

On to B24, for which the binding result was “no binding”.

Take B13: the binding result was “no binding”.

On to B25, for which the binding result is on record as “no binding”.

For B26, the binding result is recorded as “no binding”.

With B27, the binding result is given as “no binding”.
